Experimental data published in patent publication US20260116991A1 (HAINAN SIMCERE ZAIMING PHARMACEUTICAL, published 2026).

Experiments:
human GPC3-His protein [1] = target: T1, human GPC3-His protein (human, UniProt P51654 25-559); assay: ELISA, coated human GPC3, antibody 0.1 nM;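 note: antigen coated on 96-well plates at 1 µg/mL, antibody bound 2 h at 37 °C, detected with HRP-labeled secondary antibody and TMB substrate, acid-stopped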
T1 construct: Bought protein; also called human GPC3 protein; not shown: His tag

human GPC3-His protein [2] = target: T1, human GPC3-His protein; assay: ELISA, coated human GPC3, antibody 0.01 nM;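 note: Plate-bound antigen coated at 1 µg/mL, antibody incubated 2 h at 37 °C, binding detected by HRP-conjugated secondary antibody with TMB substrate, read as absorbance at 450 nm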
human GPC3-His protein [3] = target: T1, human GPC3-His protein; assay: ELISA, coated human GPC3, antibody 0.001 nM
human GPC3-His protein [4] = target: T1, human GPC3-His protein; assay: ELISA, coated human GPC3, antibody 1 nM;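 note: antigen coated at 1 µg/mL on 96-well plates, antibody bound for 2 h at 37 °C, detected with HRP-labeled secondary antibody and TMB, absorbance read at 450 nm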
human GPC3-His protein [5] = target: T1, human GPC3-His protein; assay: ELISA, coated human GPC3, antibody 100 nM;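 note: antibodies bound to antigen-coated 96-well plates (1 µg/mL), 2 h at 37 °C, detected with HRP-labelled secondary antibody and TMB substrate, absorbance read at 450 nm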
human GPC3-His protein [6] = target: T1, human GPC3-His protein; assay: ELISA, coated human GPC3, antibody 0.0001 nM
human GPC3-His protein [7] = target: T1, human GPC3-His protein; assay: ELISA, coated human GPC3, antibody 10 nM;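 note: plate coated with antigen at 1 µg/mL, antibodies bound 2 h at 37 °C, detected via HRP-conjugated secondary antibody and TMB substrate, absorbance read after acid stop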
Description: The specific method is described as follows: The antigen protein was diluted with PBS to a final concentration of 1 μg/mL, and the diluent was added to a 96-well ELISA plate at 50 μL/well. The plate was sealed with a plastic film and incubated at 4° C. overnight, washed twice with PBS the next day, and a blocking solution [PBS+2% (w/w) BSA] was added for blocking at room temperature for 2 h. […] After incubation at 37° C. for 2 h, the plate was washed 3 times with PBS. A horseradish peroxidase (HRP)-labeled secondary antibody (purchased from Merck, Cat. No. AP113P) was added for incubation at 37° C. for 1 h, and the plate was washed 5 times with PBS. A TMB substrate was added at 50 μL/well for incubation at room temperature for 10 min, then a stop solution (1.0M HCl) was added at 50 μL/well. An ELISA plate reader (Multimode Plate Reader, EnSight, purchased from Perkin Elmer) was used to read OD_{450 nm} values, with results as shown in Table 4 to Table 6, FIG. 1A, FIG. 1B, and FIG. 1C.

[8] = target: T2, human GPC3 on CHO-K1-human GPC3 cells (clone CHOK1-hGPC3.2B5) (human, UniProt P51654 25-554); assay: FACS on CHOK1-hGPC3.2B5 cells;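 note: flow cytometry binding of chimeric antibodies to the cells, read out as mean fluorescence intensity, with the half-maximal concentration derived by curve fitting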
T2 construct: whole, on cells; Stably transfected CHO-K1 clone 2B5
Description: The desired cells were expanded to a logarithmic growth phase in a T-75 cell culture flask, the medium was removed by pipetting, and the cells were washed twice with a PBS buffer, and digested with trypsin. Then a complete medium was added to stop the digestion, and the cells were blown into a single cell suspension. After counting, the cells were centrifuged, and the cell pellet was resuspended with an FACS buffer (PBS+2% fetal bovine serum) to 2×10⁶ cells/mL. The cell resuspension solution was added to a 96-well FACS reaction plate at 50 μl/well, and a chimeric antibody sample to be tested was added at 50 μl/well for incubation at 4° C. for 1 h. […] After the plate was centrifuged and washed 3 times with a PBS buffer, 100 μl of the resulting solution was assayed and analyzed by FACS (FACS Canto™, purchased from BD Biosciences). Data analysis was performed by software (FlowJo) to obtain the mean fluorescence intensity (MFI) of the cells. Then, analysis was performed by software (GraphPad Prism8), data were fitted, and EC₅₀ values were calculated.

[9] = target: T3, GPC3 endogenously expressed on HepG2 cells (UniProt P51654 25-554); assay: FACS on HepG2 cells;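 note: flow cytometric binding of chimeric antibodies to cells, read as mean fluorescence intensity, EC50 obtained by curve fitting of the MFI data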
T3 construct: whole, on cells

Binder | OD450 nm (human GPC3-His protein [1]) [OD450] | OD450 nm (human GPC3-His protein [2]) [OD450] | OD450 nm (human GPC3-His protein [3]) [OD450] | OD450 nm (human GPC3-His protein [4]) [OD450] | OD450 nm (human GPC3-His protein [5]) [OD450] | OD450 nm (human GPC3-His protein [6]) [OD450] | OD450 nm (human GPC3-His protein [7]) [OD450] | EC50 [8] [nM] | Max MFI [8] [MFI] | EC50 [9] [nM] | Max MFI [9] [MFI]
F1.9.19 human-murine chimeric antibody (antibody, human IgG1, kappa, V domains shown) VH: DVQLQESGPGLVKPSQSLSLTCSVTGYSITSGYYWNWIRQFPGNRLEWMAYISYDGINNYNPSLKNRISIARDTSTNQFFLKLNSVTSEDTATYYCATTTEVALFDHWGQGTTLTVSS VL: DVLLTQTPLSLPVSLGDQASISCRSSQNIVHGNGNTYLEWFLQKPGQSPKLLIYKVSNRFSGVPDRFSGSGSGTDFTLKISRVEAEDLGLYYCFQASHVPWTFGGGTKLEIKR | 0.58 | 0.16 | 0.11 | 1.6 | 1.88 | 0.1 | 1.85 | 1.76 | 2700 | 1.12 | 3780
F1.153.1 human-murine chimeric antibody (antibody, human IgG1, kappa, V domains shown) VH: QIQLVQSGPELKKPGETVKISCKASGYTFTTAGMQWVQKMPGKGFKWIGWINTHSGEPQYAEDFKGRFAFSLETSASTAYLQISNLKNEDTATYFCARSFYYHGSSFFYFDYWGQGTTLTVSS VL: DIVMTQSQKFMSTTVGDRVSITCKASQNVGTAVAWYQQKPGQSPKLLIYSASNRYTGVPDRFTGSGSGADFTLTISNMQSEDLADYFCQQYSRYPLTFGAGTKLELKR | 0.64 | 0.15 | 0.1 | 1.56 | 2.06 | 0.11 | 1.85 | 0.91 | 3080 | 1.3 | 4100

More lines, in order of falling EC50 [8], values ahead:

OD450 nm (human GPC3-His protein [1]) [OD450] | OD450 nm (human GPC3-His protein [2]) [OD450] | OD450 nm (human GPC3-His protein [3]) [OD450] | OD450 nm (human GPC3-His protein [4]) [OD450] | OD450 nm (human GPC3-His protein [5]) [OD450] | OD450 nm (human GPC3-His protein [6]) [OD450] | OD450 nm (human GPC3-His protein [7]) [OD450] | EC50 [8] [nM] | Max MFI [8] [MFI] | EC50 [9] [nM] | Max MFI [9] [MFI] | Binder
0.2 | 0.1 | 0.09 | 0.63 | 1.09 | 0.11 | 0.96 | 3.49 | 2160 | 1.32 | 3250 | F1.62.9 human-murine chimeric antibody (antibody, human IgG1, kappa, V domains shown) VH: QVQLQQSDAELVKPGASVKISCKVSGYIFTDHTIHWMKQRPEQGLEWIGYIYPRDGSIKYNENFKGKATLTADKSSSATYMQLNSLTSEDSAVYFCARPIYYDYAYYFDYWGQGTTLTVSS VL: DVVMTQSPLSLPVSLGDQASISCRSRQSLVHSNGNTYLHWYLQKPGQSPKVLIYKVSNRFSGVPDRFSGSGSGTDFTLKISRVEAEDLGVYFCSQSTHVPYTFGGGTKLEIKR
1.57 | 0.38 | 0.13 | 2.31 | 2.61 | 0.09 | 2.52 | 1.14 | 26700 | 0.37 | 5450 | F2.154.1 human-murine chimeric antibody (antibody, human IgG1, kappa, V domains shown) VH: QVQLQQSGAELVRPGASVKLSCKASGYRFTDYEMHWVKQTPVHGLEWIGTIDPETGNTAYTQKFMDKATLTADKSSSTAYMELRSLTSEDSAVYYCTRGYSFTYWGQGTLATVSA VL: DVLMTQTPLSLPVSLGDQASISCRSSQNIVHSNGNTYLQWYLQKPGQSPKLLIFKVSNRFSGVPDRFSGSGSGTDFTLKISRVEAEDLGVYYCFQGSHVPFTFGTGTKLEIKR
1.57 | 0.43 | 0.15 | 2.24 | 2.58 | 0.11 | 2.66 | 0.89 | 13600 | 0.66 | 1630 | F2.55.11 human-murine chimeric antibody (antibody, human IgG1, kappa, V domains shown) VH: EVKLVESGGGLVKPGGSLKLSCAASGLTFSTCTMSWVRQTPAKRLEWVATISSGGGNTYYPDSVKGRFTISRDNARNTLYLQMSSLRSEDTAMYYCVRLYYDGSPYAMDYWGQGTSVTVSS VL: DIQMTQTTSSLSASLGDRVTISCRASQDISNHLNWYQQKPDGTVKLLIYYTSRLHSGVPSRFSGSGSGTDYSLTISNLEQEDIATYFCQQDSKPPPTFGSGTKLEIKR
